Measured values taken from publication PMC11428563, “Systematic design and evaluation of aptamers for VEGF and PlGF biomarkers of Preeclampsia”.

Tests used:
Conditions in all cases: protein: commercial; tags: His; chain copies: 2
[1] = target: T1, PlGF (Human PlGF / PGF (19-149) Protein, His Tag, Acrobiosystems PGF-H52H5) (human, UniProt P49763-2 19-149); experiment: BLI; kon 3.169e3 1/Ms; koff 2.150e-1 1/s; BLI (Octet R4, anti-penta-His HIS1K sensors): protein loaded in phosphate buffer pH 7.4 (PlGF 2.5 ug/mL, VEGF 10 ug/mL); aptamers 0-20 uM in 1X Sartorius Kinetics Buffer; 1:1 global fit, triplicate; temperature not stated
T1 sequence: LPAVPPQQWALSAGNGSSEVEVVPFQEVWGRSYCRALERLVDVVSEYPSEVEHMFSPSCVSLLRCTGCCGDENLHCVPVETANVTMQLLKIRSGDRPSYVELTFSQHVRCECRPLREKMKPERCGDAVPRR

[2] = target: T1, PlGF (Human PlGF / PGF (19-149) …); experiment: BLI; kon 2.746e3 1/Ms; koff 5.548e-7 1/s; BLI (Octet R4, anti-penta-His HIS1K sensors): protein loaded in phosphate buffer pH 7.4 (PlGF 2.5 ug/mL, VEGF 10 ug/mL); aptamers 0-20 uM in 1X Sartorius Kinetics Buffer; 1:1 global fit, triplicate; temperature not stated
[3] = target: T1, PlGF (Human PlGF / PGF (19-149) …); experiment: BLI; kon 1.772e4 1/Ms; koff 2.049e-1 1/s; BLI (Octet R4, anti-penta-His HIS1K sensors): protein loaded in phosphate buffer pH 7.4 (PlGF 2.5 ug/mL, VEGF 10 ug/mL); aptamers 0-20 uM in 1X Sartorius Kinetics Buffer; 1:1 global fit, triplicate; temperature not stated

B1: PlGF-Apt4 (ssRNA)
RNA: CGAAGAGACGCAGAGAAGC
- Kd [1]: 49.7 µM

B2: PlGF-Apt3 (ssRNA)
RNA: AGAGAACGCAAGAGA
- Kd [2]: 0.000298 µM

B3: PlGF-Apt2 (ssRNA)
RNA: ACAGGCACA
- Kd [3]: 17.7 µM
